Results on two molecules are retold here after US20130171163A1 (published 2013).

First the molecules themselves.
B1: GST-cLAR fusion protein (other, UniProt P10586 1285-1907, looked up)
chain: KRKRTHSPSSKDEQSIGLKDSLLAHSSDPVEMRRLNYQTPGMRDHPPIPITDLADNIERLKANDGLKFSQEYESIDPGQQFTWENSNLEVNKPKNRYANVIAYDHSRVILTSIDGVPGSDYINANYIDGYRKQNAYIATQGPLPETMGDFWRMVWEQRTATVVMMTRLEEKSRVKCDQYWPARGTETCGLIQVTLLDTVELATYTVRTFALHKSGSSEKRELRQFQFMAWPDHGVPEYPTPILAFLRRVKACNPLDAGPMVVHCSAGVGRTGCFIVIDAMLERMKHEKTVDIYGHVTCMRSQRNYMVQTEDQYVFIHEALLEAATCGHTEVPARNLYAHIQKLGQVPPGESVTAMELEFKLLASSKAHTSRFISANLPCNKFKNRLVNIMPYELTRVCLQPIRGVEGSDYINASFLDGYRQQKAYIATQGPLAESTEDFWRMLWEHNSTIIVMLTKLREMGREKCHQYWPAERSARYQYFVVDPMAEYNMPQYILREFKVTDARDGQSRTIRQFQFTDWPEQGVPKTGEGFIDFIGQVHKTKEQFGQDGPITVHCSAGVGRTGVFITLSIVLERMRYEGVVDMFQTVKTLRTQRPAMVQTEDQYQLCYRAALEYLGSFDHYAT
notes: domain: cytoplasmic LAR (cLAR); The fusion was immobilized on glutathione-Sepharose beads and incubated with HUVEC lysates; not shown: Glutathione-S-transferase (GST) tag
B2: VEGFR3 (receptor, human, UniProt P35916 25-1363, looked up)
chain: YSMTPPTLNITEESHVIDTGDSLSISCRGQHPLEWAWPGAQEAPATGDKDSEDTGVVRDCEGTDARPYCKVLLLHEVHANDTGSYVCYYKYIKARIEGTTAASSYVFVRDFEQPFINKPDTLLVNRKDAMWVPCLVSIPGLNVTLRSQSSVLWPDGQEVVWDDRRGMLVSTPLLHDALYLQCETTWGDQDFLSNPFLVHITGNELYDIQLLPRKSLELLVGEKLVLNCTVWAEFNSGVTFDWDYPGKQAERGKWVPERRSQQTHTELSSILTIHNVSQHDLGSYVCKANNGIQRFRESTEVIVHENPFISVEWLKGPILEATAGDELVKLPVKLAAYPPPEFQWYKDGKALSGRHSPHALVLKEVTEASTGTYTLALWNSAAGLRRNISLELVVNVPPQIHEKEASSPSIYSRHSRQALTCTAYGVPLPLSIQWHWRPWTPCKMFAQRSLRRRQQQDLMPQCRDWRAVTTQDAVNPIESLDTWTEFVEGKNKTVSKLVIQNANVSAMYKCVVSNKVGQDERLIYFYVTTIPDGFTIESKPSEELLEGQPVLLSCQADSYKYEHLRWYRLNLSTLHDAHGNPLLLDCKNVHLFATPLAASLEEVAPGARHATLSLSIPRVAPEHEGHYVCEVQDRRSHDKHCHKKYLSVQALEAPRLTQNLTDLLVNVSDSLEMQCLVAGAHAPSIVWYKDERLLEEKSGVDLADSNQKLSIQRVREEDAGRYLCSVCNAKGCVNSSASVAVEGSEDKGSMEIVILVGTGVIAVFFWVLLLLIFCNMRRPAHADIKTGYLSIIMDPGEVPLEEQCEYLSYDASQWEFPRERLHLGRVLGYGAFGKVVEASAFGIHKGSSCDTVAVKMLKEGATASEHRALMSELKILIHIGNHLNVVNLLGACTKPQGPLMVIVEFCKYGNLSNFLRAKRDAFSPCAEKSPEQRGRFRAMVELARLDRRRPGSSDRVLFARFSKTEGGARRASPDQEAEDLWLSPLTMEDLVCYSFQVARGMEFLASRKCIHRDLAARNILLSESDVVKICDFGLARDIYKDPDYVRKGSARLPLKWMAPESIFDKVYTTQSDVWSFGVLLWEIFSLGASPYPGVQINEEFCQRLRDGTRMRAPELATPAIRRIMLNCWSGDPKARPAFSELVEILGDLLQGRGLQEEEEVCMAPRSSQSSEEGSFSQVSTMALHIAQADAEDSPPSLQRHSLAARYYNWVSFPGCLARGAETRGSSRMKTFEEFPMTPTTYKGSVDNQTDSGMVLASEEFEQIESRHRQESGFSCKGPGQNVAVTRAHPDSQGRRRRPERGARGGQVFYNSEYGELSEPSEEDHCSPSARVTFFTDNSY
notes: Endogenous protein in HUVEC lysates, with or without VEGF treatment (20 ng/ml, 10 min)

One assay deals with T1, VEGFR2 (human, UniProt P35968 20-1356).
T1 construct: Endogenous protein in HUVEC lysates, with or without VEGF treatment (20 ng/ml, 10 min)
Kind of assay: GST pulldown from HUVEC lysates, Western blot with anti-VEGFR2. On the procedure:
(§1) C, Lysates from HUVECs stimulated with or without VEGF (20 ng/ml) for 10 min were immunoprecipitated with polyclonal antibodies against anti-cLAR or control goat IgG, followed by immunoblotting with anti-VEGFR2 (top), VEGFR3 (middle) or anti-cLAR antibody (bottom). D, Equal amounts of GST or GST-cLAR fusion protein were immobilized on glutathione-Sepharose beads and then incubated with HUVEC lysates containing equal amount of protein. GST or GST-cLAR-associated proteins were analyzed by Western blotting using anti-IGF-1Rβ antibody. The same membrane was reprobed with anti-GST antibody (E), anti-VEGFR2 (F, top) or anti-VEGFR3 (F, bottom) antibodies.

The assay “VEGFR3” deals with B2. Kind of assay: GST pulldown from HUVEC lysates, Western blot with anti-VEGFR3. Here is the method: as §1
(In general: A western blot detects proteins with antibodies after separation by electrophoresis.)

Assay [1] addresses T2, leukocyte antigen-related protein tyrosine phosphatase (LAR) (human, UniProt P10586 30-1907, limits assumed).
T2 construct: Endogenous protein in HUVEC lysates; The background section describes LAR as a non-covalent complex of a 150-kDa E subunit and an 85-kDa P subunit, cleaved from a 200-kDa proprotein; In the functional assays, full-length human LAR was overexpressed from adenovirus (AdLAR) or knocked down with siRNA; also called LAR PTP; leukocyte antigen-related (LAR) PTP
In words: co-immunoprecipitation from HUVEC lysates with anti-cLAR antibody, Western blot with anti-VEGFR3. On the procedure:
as §1

T1 sequence (P35968 20-1356 limits assumed): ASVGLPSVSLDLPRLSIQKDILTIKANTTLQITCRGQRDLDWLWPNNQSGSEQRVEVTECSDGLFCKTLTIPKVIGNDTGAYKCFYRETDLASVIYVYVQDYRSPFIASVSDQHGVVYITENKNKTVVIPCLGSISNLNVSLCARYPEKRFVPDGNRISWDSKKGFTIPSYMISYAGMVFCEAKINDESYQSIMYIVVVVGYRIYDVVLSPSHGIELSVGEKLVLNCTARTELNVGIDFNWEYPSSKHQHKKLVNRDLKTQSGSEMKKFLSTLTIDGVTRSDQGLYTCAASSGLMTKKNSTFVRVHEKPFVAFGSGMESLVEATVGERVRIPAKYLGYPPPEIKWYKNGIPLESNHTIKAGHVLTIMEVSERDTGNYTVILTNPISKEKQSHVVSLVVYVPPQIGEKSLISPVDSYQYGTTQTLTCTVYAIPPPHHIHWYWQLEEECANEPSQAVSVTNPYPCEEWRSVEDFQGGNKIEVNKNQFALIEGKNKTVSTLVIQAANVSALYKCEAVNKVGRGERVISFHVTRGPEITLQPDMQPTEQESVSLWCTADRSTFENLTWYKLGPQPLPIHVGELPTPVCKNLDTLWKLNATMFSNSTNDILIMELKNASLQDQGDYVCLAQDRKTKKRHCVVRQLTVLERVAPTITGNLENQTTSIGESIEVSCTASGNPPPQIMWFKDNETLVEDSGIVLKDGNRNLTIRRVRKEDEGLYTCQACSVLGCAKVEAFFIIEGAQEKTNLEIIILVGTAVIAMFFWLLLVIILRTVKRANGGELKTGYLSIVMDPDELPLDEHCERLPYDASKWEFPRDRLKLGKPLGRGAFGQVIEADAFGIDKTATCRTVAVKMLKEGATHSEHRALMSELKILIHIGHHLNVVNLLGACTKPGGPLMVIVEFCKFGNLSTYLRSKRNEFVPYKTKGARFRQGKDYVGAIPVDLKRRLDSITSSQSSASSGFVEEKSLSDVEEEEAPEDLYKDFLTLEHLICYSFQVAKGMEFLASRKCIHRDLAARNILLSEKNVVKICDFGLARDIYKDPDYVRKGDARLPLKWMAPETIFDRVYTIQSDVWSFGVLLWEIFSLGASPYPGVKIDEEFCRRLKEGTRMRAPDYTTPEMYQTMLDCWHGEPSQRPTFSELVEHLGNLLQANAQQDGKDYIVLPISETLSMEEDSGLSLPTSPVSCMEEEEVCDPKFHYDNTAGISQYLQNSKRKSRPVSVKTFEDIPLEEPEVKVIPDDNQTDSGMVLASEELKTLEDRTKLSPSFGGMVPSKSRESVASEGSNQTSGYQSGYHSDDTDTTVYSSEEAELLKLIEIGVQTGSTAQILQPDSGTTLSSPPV

For the molecule B1, the binding result with VEGFR2 and with VEGFR3 was “no binding” throughout.
Consider B2, for which the binding result in assay [1] is reported as “no binding”.
